T1: glucose-dependent insulinotropic peptide (gastric inhibitory polypeptide) receptor (GIPR) (human, UniProt P48546 22-466)
T1 sequence (looked up): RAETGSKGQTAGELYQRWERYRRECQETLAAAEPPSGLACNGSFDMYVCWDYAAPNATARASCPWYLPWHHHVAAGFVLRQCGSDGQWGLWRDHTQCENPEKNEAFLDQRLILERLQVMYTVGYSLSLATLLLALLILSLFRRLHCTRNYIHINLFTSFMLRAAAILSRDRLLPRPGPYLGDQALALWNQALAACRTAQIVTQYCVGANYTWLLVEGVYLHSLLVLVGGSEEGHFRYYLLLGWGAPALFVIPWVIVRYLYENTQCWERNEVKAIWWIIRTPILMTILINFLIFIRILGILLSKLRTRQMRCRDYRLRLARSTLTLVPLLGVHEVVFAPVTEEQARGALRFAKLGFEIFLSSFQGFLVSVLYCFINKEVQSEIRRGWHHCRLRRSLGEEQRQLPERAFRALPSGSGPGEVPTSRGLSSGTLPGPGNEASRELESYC

B1: SEQ ID NO 88 (peptide)
peptide: HXEGSFTSDVSKFLEGEAAKEFIAFVVKGG
modifications: Aib 2; α-MeF 6, 13, 22, 25; α-MeS 11; α-MeK 20, 28; K(ε-γE-Palmitoyl) 12; C-terminal amide
B2: SEQ ID NO 92 (peptide)
peptide: H[Aib]EGS[αMeF]TK([γGlu-Palmitoyl])DV[αMeS]S[αMeF]LEGEAA[αMeK]E[αMeF]IA[αMeF]VV[αMeK]GG-NH2
modifications: N-terminus assumed
SMILES: CCCCCCCCCCCCCCCC(=O)N[C@@H](CCC(=O)NCCCC[C@H](NC(=O)[C@@H](NC(=O)[C@](C)(Cc1ccccc1)NC(=O)[C@H](CO)NC(=O)CNC(=O)[C@H](CCC(=O)O)NC(=O)C(C)(C)NC(=O)[C@@H](N)Cc1c[nH]cn1)[C@@H](C)O)C(=O)N[C@@H](CC(=O)O)C(=O)N[C@H](C(=O)N[C@@](C)(CO)C(=O)N[C@@H](CO)C(=O)N[C@@](C)(Cc1ccccc1)C(=O)N[C@@H](CC(C)C)C(=O)N[C@@H](CCC(=O)O)C(=O)NCC(=O)N[C@@H](CCC(=O)O)C(=O)N[C@@H](C)C(=O)N[C@@H](C)C(=O)N[C@@](C)(CCCCN)C(=O)N[C@@H](CCC(=O)O)C(=O)N[C@@](C)(Cc1ccccc1)C(=O)N[C@H](C(=O)N[C@@H](C)C(=O)N[C@@](C)(Cc1ccccc1)C(=O)N[C@H](C(=O)N[C@H](C(=O)N[C@@](C)(CCCCN)C(=O)NCC(=O)NCC(N)=O)C(C)C)C(C)C)[C@@H](C)CC)C(C)C)C(=O)O
B3: SEQ ID NO 87 (peptide)
peptide: H[Aib]EGS[αMeF]TSDV[αMeS]SK([γGlu-Palmitoyl])LEGEAA[αMeK]E[αMeF]IA[αMeF]VV[αMeK]GG-NH2
modifications: N-terminus assumed
SMILES: CCCCCCCCCCCCCCCC(=O)N[C@@H](CCC(=O)NCCCC[C@H](NC(=O)[C@H](CO)NC(=O)[C@](C)(CO)NC(=O)[C@@H](NC(=O)[C@H](CC(=O)O)NC(=O)[C@H](CO)NC(=O)[C@@H](NC(=O)[C@](C)(Cc1ccccc1)NC(=O)[C@H](CO)NC(=O)CNC(=O)[C@H](CCC(=O)O)NC(=O)C(C)(C)NC(=O)[C@@H](N)Cc1c[nH]cn1)[C@@H](C)O)C(C)C)C(=O)N[C@@H](CC(C)C)C(=O)N[C@@H](CCC(=O)O)C(=O)NCC(=O)N[C@@H](CCC(=O)O)C(=O)N[C@@H](C)C(=O)N[C@@H](C)C(=O)N[C@@](C)(CCCCN)C(=O)N[C@@H](CCC(=O)O)C(=O)N[C@@](C)(Cc1ccccc1)C(=O)N[C@H](C(=O)N[C@@H](C)C(=O)N[C@@](C)(Cc1ccccc1)C(=O)N[C@H](C(=O)N[C@H](C(=O)N[C@@](C)(CCCCN)C(=O)NCC(=O)NCC(N)=O)C(C)C)C(C)C)[C@@H](C)CC)C(=O)O
B4: SEQ ID NO 93 (peptide)
peptide: H[Aib]EGS[αMeF]K([γGlu-Palmitoyl])SDV[αMeS]S[αMeF]LEGEAA[αMeK]E[αMeF]IA[αMeF]VV[αMeK]GG-NH2
modifications: N-terminus assumed
SMILES: CCCCCCCCCCCCCCCC(=O)N[C@@H](CCC(=O)NCCCC[C@H](NC(=O)[C@](C)(Cc1ccccc1)NC(=O)[C@H](CO)NC(=O)CNC(=O)[C@H](CCC(=O)O)NC(=O)C(C)(C)NC(=O)[C@@H](N)Cc1c[nH]cn1)C(=O)N[C@@H](CO)C(=O)N[C@@H](CC(=O)O)C(=O)N[C@H](C(=O)N[C@@](C)(CO)C(=O)N[C@@H](CO)C(=O)N[C@@](C)(Cc1ccccc1)C(=O)N[C@@H](CC(C)C)C(=O)N[C@@H](CCC(=O)O)C(=O)NCC(=O)N[C@@H](CCC(=O)O)C(=O)N[C@@H](C)C(=O)N[C@@H](C)C(=O)N[C@@](C)(CCCCN)C(=O)N[C@@H](CCC(=O)O)C(=O)N[C@@](C)(Cc1ccccc1)C(=O)N[C@H](C(=O)N[C@@H](C)C(=O)N[C@@](C)(Cc1ccccc1)C(=O)N[C@H](C(=O)N[C@H](C(=O)N[C@@](C)(CCCCN)C(=O)NCC(=O)NCC(N)=O)C(C)C)C(C)C)[C@@H](C)CC)C(C)C)C(=O)O
B5: SEQ ID NO 90 (peptide)
peptide: H[Aib]EGS[αMeF]TSDK([γGlu-Palmitoyl])[αMeS]S[αMeF]LEGEAA[αMeK]E[αMeF]IA[αMeF]VV[αMeK]GG-NH2
modifications: N-terminus assumed
SMILES: CCCCCCCCCCCCCCCC(=O)N[C@@H](CCC(=O)NCCCC[C@H](NC(=O)[C@H](CC(=O)O)NC(=O)[C@H](CO)NC(=O)[C@@H](NC(=O)[C@](C)(Cc1ccccc1)NC(=O)[C@H](CO)NC(=O)CNC(=O)[C@H](CCC(=O)O)NC(=O)C(C)(C)NC(=O)[C@@H](N)Cc1c[nH]cn1)[C@@H](C)O)C(=O)N[C@@](C)(CO)C(=O)N[C@@H](CO)C(=O)N[C@@](C)(Cc1ccccc1)C(=O)N[C@@H](CC(C)C)C(=O)N[C@@H](CCC(=O)O)C(=O)NCC(=O)N[C@@H](CCC(=O)O)C(=O)N[C@@H](C)C(=O)N[C@@H](C)C(=O)N[C@@](C)(CCCCN)C(=O)N[C@@H](CCC(=O)O)C(=O)N[C@@](C)(Cc1ccccc1)C(=O)N[C@H](C(=O)N[C@@H](C)C(=O)N[C@@](C)(Cc1ccccc1)C(=O)N[C@H](C(=O)N[C@H](C(=O)N[C@@](C)(CCCCN)C(=O)NCC(=O)NCC(N)=O)C(C)C)C(C)C)[C@@H](C)CC)C(=O)O
B6: SEQ ID NO 89 (peptide)
peptide: H[Aib]EGS[αMeF]TSDVK([γGlu-Palmitoyl])S[αMeF]LEGEAA[αMeK]E[αMeF]IA[αMeF]VV[αMeK]GG-NH2
modifications: N-terminus assumed
SMILES: CCCCCCCCCCCCCCCC(=O)N[C@@H](CCC(=O)NCCCC[C@H](NC(=O)[C@@H](NC(=O)[C@H](CC(=O)O)NC(=O)[C@H](CO)NC(=O)[C@@H](NC(=O)[C@](C)(Cc1ccccc1)NC(=O)[C@H](CO)NC(=O)CNC(=O)[C@H](CCC(=O)O)NC(=O)C(C)(C)NC(=O)[C@@H](N)Cc1c[nH]cn1)[C@@H](C)O)C(C)C)C(=O)N[C@@H](CO)C(=O)N[C@@](C)(Cc1ccccc1)C(=O)N[C@@H](CC(C)C)C(=O)N[C@@H](CCC(=O)O)C(=O)NCC(=O)N[C@@H](CCC(=O)O)C(=O)N[C@@H](C)C(=O)N[C@@H](C)C(=O)N[C@@](C)(CCCCN)C(=O)N[C@@H](CCC(=O)O)C(=O)N[C@@](C)(Cc1ccccc1)C(=O)N[C@H](C(=O)N[C@@H](C)C(=O)N[C@@](C)(Cc1ccccc1)C(=O)N[C@H](C(=O)N[C@H](C(=O)N[C@@](C)(CCCCN)C(=O)NCC(=O)NCC(N)=O)C(C)C)C(C)C)[C@@H](C)CC)C(=O)O
B7: SEQ ID NO 91 (peptide)
peptide: H[Aib]EGS[αMeF]TSK([γGlu-Palmitoyl])V[αMeS]S[αMeF]LEGEAA[αMeK]E[αMeF]IA[αMeF]VV[αMeK]GG-NH2
modifications: N-terminus assumed
SMILES: CCCCCCCCCCCCCCCC(=O)N[C@@H](CCC(=O)NCCCC[C@H](NC(=O)[C@H](CO)NC(=O)[C@@H](NC(=O)[C@](C)(Cc1ccccc1)NC(=O)[C@H](CO)NC(=O)CNC(=O)[C@H](CCC(=O)O)NC(=O)C(C)(C)NC(=O)[C@@H](N)Cc1c[nH]cn1)[C@@H](C)O)C(=O)N[C@H](C(=O)N[C@@](C)(CO)C(=O)N[C@@H](CO)C(=O)N[C@@](C)(Cc1ccccc1)C(=O)N[C@@H](CC(C)C)C(=O)N[C@@H](CCC(=O)O)C(=O)NCC(=O)N[C@@H](CCC(=O)O)C(=O)N[C@@H](C)C(=O)N[C@@H](C)C(=O)N[C@@](C)(CCCCN)C(=O)N[C@@H](CCC(=O)O)C(=O)N[C@@](C)(Cc1ccccc1)C(=O)N[C@H](C(=O)N[C@@H](C)C(=O)N[C@@](C)(Cc1ccccc1)C(=O)N[C@H](C(=O)N[C@H](C(=O)N[C@@](C)(CCCCN)C(=O)NCC(=O)NCC(N)=O)C(C)C)C(C)C)[C@@H](C)CC)C(C)C)C(=O)O

Starred links: 1 amine or outer side, 2 acyl side, 3 side chain; linkers in the order of their positions; H or OH if unused. Non-standard residues stand in square brackets, D forms with d. Groups on a side chain read outwards from the residue. No end group written: not given here. *: point of attachment. γGlu = O=C(O)[C@H](CCC(=O)[*:2])N[*:1]; Palmitoyl = CCCCCCCCCCCCCCCC(=O)*; αMeF = C[C@](N)(Cc1ccccc1)C(=O)O; αMeK = C[C@](N)(CCCCN)C(=O)O; αMeS = C[C@](N)(CO)C(=O)O; Aib = CC(C)(N)C(=O)O

glucagon receptor (GCGR), sequence (P47871 26-477): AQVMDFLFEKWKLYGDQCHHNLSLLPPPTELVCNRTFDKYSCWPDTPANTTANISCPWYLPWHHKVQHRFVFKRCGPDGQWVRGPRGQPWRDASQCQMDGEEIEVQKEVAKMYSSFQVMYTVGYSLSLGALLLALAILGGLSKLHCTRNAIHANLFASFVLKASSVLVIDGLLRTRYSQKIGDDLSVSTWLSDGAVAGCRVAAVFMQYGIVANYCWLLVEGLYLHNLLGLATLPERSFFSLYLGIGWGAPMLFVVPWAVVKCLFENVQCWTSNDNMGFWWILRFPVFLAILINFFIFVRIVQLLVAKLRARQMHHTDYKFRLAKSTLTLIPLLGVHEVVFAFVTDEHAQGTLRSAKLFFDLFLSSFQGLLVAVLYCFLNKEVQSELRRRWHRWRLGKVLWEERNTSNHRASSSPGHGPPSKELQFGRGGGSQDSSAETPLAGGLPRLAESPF

The first test deals with GLP-1 receptor (GLP-1R) (human, UniProt P43220 24-463). The experiment in a line: cell-based or functional assay.
Turning to B1, the “cAMP Mean pM GLP-1R” value amounted to 5 pM, the “cAMP Primary assay EC50 GLP-1R n1” value is 0.0043 nM and the “cAMP Primary assay EC50 GLP-1R n2” value was determined as 0.0057 nM.
For B2 the same measures were 423 pM, 0.45 nM and 0.39 nM.
For B3 the same measures were 1.6 pM, 0.0016 nM and 0.0016 nM.
For B4 the same measures were 27600 pM, 28 nM and 28 nM.
In the case of B5, the “cAMP Mean pM GLP-1R” value was determined as 0.7 pM, the “cAMP Primary assay EC50 GLP-1R n1” value worked out at 0.00068 nM and the “cAMP Primary assay EC50 GLP-1R n2” value came to 0.00079 nM.
For B6 the same measures were 548 pM, 0.45 nM and 0.65 nM.
For B7 the same measures were 24 pM, 0.021 nM and 0.027 nM.

The next test has as its target glucagon receptor (GCGR) (human, UniProt P47871 26-477). The experiment in a line: cell-based or functional assay.
For the molecule B1, the “cAMP Primary assay EC50 Gluc-R” value was found to be 28 nM and the “cAMP Primary assay EC50 Gluc-R (2nd)” value came out at 28 nM.
Turning to B2, the “cAMP Primary assay EC50 Gluc-R” value came out at 28 nM and the “cAMP Primary assay EC50 Gluc-R (2nd)” value turned out to be 28 nM.
Regarding B3, the “cAMP Primary assay EC50 Gluc-R” value is 28 nM and the “cAMP Primary assay EC50 Gluc-R (2nd)” value is 28 nM.
B4: the “cAMP Primary assay EC50 Gluc-R” value came out at 28 nM and the “cAMP Primary assay EC50 Gluc-R (2nd)” value was determined as 28 nM.
For B5, the “cAMP Primary assay EC50 Gluc-R” value came to 28 nM and the “cAMP Primary assay EC50 Gluc-R (2nd)” value is 28 nM.
Turning to B6, the “cAMP Primary assay EC50 Gluc-R” value is 28 nM and the “cAMP Primary assay EC50 Gluc-R (2nd)” value is 28 nM.
Turning to B7, the “cAMP Primary assay EC50 Gluc-R” value was 28 nM and the “cAMP Primary assay EC50 Gluc-R (2nd)” value is 28 nM.

The next test concerns the target T1, glucose-dependent insulinotropic …. The experiment in a line: cell-based or functional assay.
As to B1, the “cAMP Primary assay EC50 GIP-R” value came to 28 nM and the “cAMP Primary assay EC50 GIP-R (2nd)” value was 28 nM.
For the molecule B2, the “cAMP Primary assay EC50 GIP-R” value stood at 28 nM and the “cAMP Primary assay EC50 GIP-R (2nd)” value came out at 28 nM.
With B3, the “cAMP Primary assay EC50 GIP-R” value was determined as 28 nM and the “cAMP Primary assay EC50 GIP-R (2nd)” value was found to be 28 nM.
In the case of B4, the “cAMP Primary assay EC50 GIP-R” value was found to be 28 nM and the “cAMP Primary assay EC50 GIP-R (2nd)” value is 28 nM.
Take B5: the “cAMP Primary assay EC50 GIP-R” value turned out to be 28 nM and the “cAMP Primary assay EC50 GIP-R (2nd)” value is 28 nM.
On to B6, for which the “cAMP Primary assay EC50 GIP-R” value worked out at 28 nM and the “cAMP Primary assay EC50 GIP-R (2nd)” value was found to be 28 nM.
For the molecule B7, the “cAMP Primary assay EC50 GIP-R” value amounted to 28 nM and the “cAMP Primary assay EC50 GIP-R (2nd)” value is 28 nM.

The record behind these values is patent publication US20200079833A1 (AstraZeneca / MedImmune, published 2020).
